Laboratory results reported in US7811561 (dated 2010).

T1: cdk4 (UniProt P30285 2-303)
T1 sequence (looked up): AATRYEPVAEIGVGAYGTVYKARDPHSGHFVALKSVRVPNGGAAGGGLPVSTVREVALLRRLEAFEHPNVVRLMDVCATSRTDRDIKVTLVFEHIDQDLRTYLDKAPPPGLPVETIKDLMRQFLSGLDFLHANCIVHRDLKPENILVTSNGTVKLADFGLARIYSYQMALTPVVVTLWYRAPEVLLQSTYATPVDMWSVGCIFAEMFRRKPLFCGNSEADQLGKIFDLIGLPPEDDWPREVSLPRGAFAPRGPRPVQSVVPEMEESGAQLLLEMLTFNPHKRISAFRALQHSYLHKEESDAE


Legend:
[1] = molecular target: GST-RB (source of Rb protein substrate)
[2] = molecular target: T2, cyclin D1 (UniProt P25322 1-295); assay: co-immunoprecipitation and immunoblotting, NIH 3T3 cell lysates
T2 construct: Immunoprecipitated from NIH 3T3 lysates
Procedure: (§1) TBS was Tris-buffered saline containing 0.1% (w/v) sodium dodecyl sulfate. Samples were pre-cleared with Protein-G beads (GIBCO, Grand Island, N.Y.) and either normal rabbit or mouse serum (each at a 1:1000 dilution). Immunoprecipitation of cyclin D1 was carried out for 12 hours at 4° C. Immune complexes were precipitated using 1 to 5 micrograms of antibody and Protein-G agarose, and were then heated at 95° C. for 5 minutes in IP buffer, which comprised 93 millimolar Tris, 3% (w/v) SDS, 1.1 millimolar β-mercaptoethanol, 0.03% (w/v) bromophenol blue (BPB), and 15% (v/v) glycerol (SIGMA, Saint Louis, Mo.) at a pH of 6.8. The eluant was analyzed using a denaturing, reducing SDS-PAGE gel, and the contents of the gel were transferred to supported nitrocellulose filter by electroblotting. Filters were incubated with 1 to 5 micrograms of an antibody which binds specifically with one of the following: cyclin D1, cdk4, cdk6, PCNA, and p21. Horseradish peroxidase-linked anti-mouse or anti-rabbit whole antibody was used as a secondary antibody. Chemiluminescence was detected using an ECL™ kit (Amersham Life Science, Arlington Heights, Ill.) according to the manufacturer's instruction.
(§2) An increased level of cyclin D1 protein was detected by immunoprecipitation in lysates from NIH 3T3 cells transfected with PCMV-MCT-1, relative to asynchronously grown control cells which were not transfected or which were transfected with control vector. Because cdk4 and cdk6 associate with cyclin D1 during cell cycle progression, complex formation among these molecules was investigated using co-immunoprecipitation analysis. Increased subunit complex formation in NIH 3T3 cells constitutively expressing MCT-1, relative to cells which were not transfected with a vector encoding MCT-1. Physical interaction of PCNA with cyclin D1-cdk4/cdk6 complexes was also investigated. Co-immunoprecipitation of cyclin D1 and PCNA was detected at an increased level, relative to cells which were not transfected with a vector encoding MCT-1. Direct physical interaction was not detected between MCT-1 and any of proteins cyclin D1, cdk4, cdk6, and PCNA under these assay conditions.

[3] = molecular target: T1, cdk4; assay: as above
Procedure: as §1, §2

[4] = molecular target: cdk6 (UniProt Q64261 1-326); assay: as above
Procedure: as §1, §2

[5] = molecular target: PCNA (UniProt P17918 1-261); assay: as above
Procedure: as §1, §2

T2 sequence (P25322 whole entry): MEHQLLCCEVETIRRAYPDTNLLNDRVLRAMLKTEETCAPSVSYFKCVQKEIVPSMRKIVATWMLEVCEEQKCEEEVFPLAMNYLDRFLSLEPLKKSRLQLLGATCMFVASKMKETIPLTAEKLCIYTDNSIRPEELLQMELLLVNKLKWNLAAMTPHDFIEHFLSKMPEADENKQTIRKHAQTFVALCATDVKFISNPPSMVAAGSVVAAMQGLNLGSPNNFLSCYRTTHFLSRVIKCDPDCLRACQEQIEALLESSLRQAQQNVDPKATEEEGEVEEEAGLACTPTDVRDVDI
Chain of PCNA (P17918 whole entry): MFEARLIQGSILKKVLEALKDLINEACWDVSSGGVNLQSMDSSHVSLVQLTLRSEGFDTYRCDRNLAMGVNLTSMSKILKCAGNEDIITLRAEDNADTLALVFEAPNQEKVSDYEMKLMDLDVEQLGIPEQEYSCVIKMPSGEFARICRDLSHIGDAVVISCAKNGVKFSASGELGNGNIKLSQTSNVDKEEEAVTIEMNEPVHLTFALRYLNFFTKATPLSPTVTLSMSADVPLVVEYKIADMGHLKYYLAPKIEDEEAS

Binder | in vitro immune complex kinase assay (32P phosphorylation of Rb protein) [1] | binding result [2] | binding result [3] | binding result [4] | binding result [5]
cdk4 (protein) AATRYEPVAEIGVGAYGTVYKARDPHSGHFVALKSVRVPNGGAAGGGLPVSTVREVALLRRLEAFEHPNVVRLMDVCATSRTDRDIKVTLVFEHIDQDLRTYLDKAPPPGLPVETIKDLMRQFLSGLDFLHANCIVHRDLKPENILVTSNGTVKLADFGLARIYSYQMALTPVVVTLWYRAPEVLLQSTYATPVDMWSVGCIFAEMFRRKPLFCGNSEADQLGKIFDLIGLPPEDDWPREVSLPRGAFAPRGPRPVQSVVPEMEESGAQLLLEMLTFNPHKRISAFRALQHSYLHKEESDAE | A markedly increased ability to phosphorylate Rb protein |  |  |  | 
cdk6 (protein) MEKDSLSRADQQYECVAEIGEGAYGKVFKARDLKNGGRFVALKRVRVQTSEEGMPLSTIREVAVLRHLETFEHPNVVRLFDVCTVSRTDRETKLTLVFEHVDQDLTTYLDKVPEPGVPTETIKDMMFQLLRGLDFLHSHRVVHRDLKPQNILVTSSGQIKLADFGLARIYSFQMALTSVVVTLWYRAPEVLLQSSYATPVDLWSVGCIFAEMFRRKPLFRGSSDVDQLGKILDIIGLPGEEDWPRDVALPRQAFHSKSAQPIEKFVTDIDELGKDLLLKCLTFNPAKRISAYGALNHPYFQDLERYKDNLNSHLPSNQSTSELNTA | A markedly increased ability to phosphorylate Rb protein |  |  |  | 
MCT-1 (Multiple Copies in T-cell malignancy) protein (other, Expressed from the full length MCT-1 cDNA (pCMV-MCT-1) in stably transfected NIH 3T3 fibroblasts and tested in cell lysates) MFKKFDEKENVSNCIQLKTSVIKGIKNQLIEQFPGIEPWLNQIMPKKDPVKIVRCHEHIEILTVNGELLFFRQREGPFYPTLRLLHKYPFILPHQQVDKGAIKFVLSGANIMCPGLTSPGAKLYPAAVDTIVAIMAEGKQHALCVGVMKMSAEDIEKVNKGIGIENIHYLNDGLWHMKTYK |  | no binding | no binding | no binding | no binding
